For 6 molecules, EC50 results are on record in US20260285971 (published 2026).

Numbering of substitutions follows the chain as printed.

Test [1] deals with T1, human GPRC5D (human).
T1 chain: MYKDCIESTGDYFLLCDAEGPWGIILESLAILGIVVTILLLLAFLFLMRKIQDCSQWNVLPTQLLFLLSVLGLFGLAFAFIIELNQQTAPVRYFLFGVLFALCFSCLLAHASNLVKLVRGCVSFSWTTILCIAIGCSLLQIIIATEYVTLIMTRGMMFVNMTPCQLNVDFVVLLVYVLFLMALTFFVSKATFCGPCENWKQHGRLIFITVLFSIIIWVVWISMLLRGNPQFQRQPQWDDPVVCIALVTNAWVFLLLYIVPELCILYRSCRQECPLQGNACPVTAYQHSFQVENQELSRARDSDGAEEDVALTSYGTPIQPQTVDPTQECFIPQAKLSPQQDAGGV
The test is described as follows: ELISA. In general terms: ELISA stands for enzyme-linked immunosorbent assay.

Test [2] has as its target T1, human GPRC5D. The test can be described thus: FACS NCI-H929.
The target in test [3] is T1, human GPRC5D. The test can be described thus: FACS molp-8.
Test [4] deals with T1, human GPRC5D. The test is described as follows: FACS RPMI-8226.

B1: HAB01-H1 (antibody, V domains shown)
VH: EVQLVESGGGLVQPGGSLRLSCAASGYAGGIAYMAWFRQAPGKGREGVANIATSGTTYYVDSVKGRFTISRDGAKNSLYLQMNSLRAEDTAVYYCAAKSRLGWPGLETSQFKYWGQGTMVTVSS
Usually EC50 stands for the concentration giving half of the maximal effect. Low values mean an effect from little substance, high ones a need for much substance. Regarding B1, the EC50 in the test with human GPRC5D [1] was found to be 0.023 nM; in the test with human GPRC5D [2], 1.63 nM; with human GPRC5D [3] it was 3.3 nM; in the test with human GPRC5D [4], 103 nM.

B2: HAB01-H7 (antibody, V domains shown)
VH: B1 VH with N50L, Y58S, V60A, L78V
As for B2, the half-maximal effective concentration (EC50) with human GPRC5D [1] was 0.0264 nM; with human GPRC5D [2], 0.916 nM; with human GPRC5D [3], 0.76 nM; with human GPRC5D [4] it was 3.7 nM.

B3: HAB01-H3 (antibody, V domains shown)
VH: B1 VH with N50L, Y58S
On to B3, for which the EC50 with human GPRC5D [1] is 0.0259 nM; with human GPRC5D [2], 1.02 nM; with human GPRC5D [3], 1.37 nM; with human GPRC5D [4] it was 36 nM.

B4: HAB01-H8 (antibody, V domains shown)
VH: B1 VH with N50L, Y58S, K75D, L78V
As for B4, the 50% effective concentration (EC50) was 0.0336 nM in the test with human GPRC5D [1], 1.41 nM in the test with human GPRC5D [2], 1.24 nM with human GPRC5D [3] and 1.77 nM with human GPRC5D [4].

B5: HAB01-H6 (antibody, V domains shown)
VH: B1 VH with E6A, N50L, Y58S, L78V
As for B5, the EC50 was found to be 0.0178 nM in the test with human GPRC5D [1], 0.666 nM with human GPRC5D [2], 0.755 nM with human GPRC5D [3] and 25.7 nM with human GPRC5D [4].

B6: Lab01-huFc (antibody, V domains shown)
VH: EVQLQASGGGSVQAGGSRRLSCVASGYAGGIAYMAWFRQTPGKGREGVALIATSGTTSYANSVKGRFTIFRDGADNTVYLEMSSLKPEDTATYYCAAKSRLGWPGLETSQFKYWGQGTQVTVSS
As to B6, the EC50 was found to be 0.0182 nM with human GPRC5D [1], 0.653 nM with human GPRC5D [2], 0.625 nM with human GPRC5D [3] and 2.08 nM with human GPRC5D [4].
